Test results: PMC4596688, “Structural determinants of nuclear export signal orientation in binding to exportin CRM1” (eLife, 2015)

Columns and labels:
[1] = molecular target: Full-length human CRM1 (HsCRM1) (UniProt O14980); test: GST pull-down, SDS/PAGE band intensity; conditions: excess ScRanGTP; triplicate experiments; parent: est. 100; read off a plot
[2] = molecular target: Full-length human CRM1 (HsCRM1) (UniProt O14980); test: competition differential bleaching monitored with a microscale thermophoresis instrument; MBP-NESs serially diluted from 100 μM to 3 nM with 40 nM FITC-PKI^NES, mixed 1:1 with 300 nM HsCRM1 and 120 μM ScRan-GTP; TB buffer with 15% glycerol, 0.05% Tween-20; 1.5 hr, room temperature

Chain of Full-length human CRM1 (HsCRM1) (O14980 whole entry): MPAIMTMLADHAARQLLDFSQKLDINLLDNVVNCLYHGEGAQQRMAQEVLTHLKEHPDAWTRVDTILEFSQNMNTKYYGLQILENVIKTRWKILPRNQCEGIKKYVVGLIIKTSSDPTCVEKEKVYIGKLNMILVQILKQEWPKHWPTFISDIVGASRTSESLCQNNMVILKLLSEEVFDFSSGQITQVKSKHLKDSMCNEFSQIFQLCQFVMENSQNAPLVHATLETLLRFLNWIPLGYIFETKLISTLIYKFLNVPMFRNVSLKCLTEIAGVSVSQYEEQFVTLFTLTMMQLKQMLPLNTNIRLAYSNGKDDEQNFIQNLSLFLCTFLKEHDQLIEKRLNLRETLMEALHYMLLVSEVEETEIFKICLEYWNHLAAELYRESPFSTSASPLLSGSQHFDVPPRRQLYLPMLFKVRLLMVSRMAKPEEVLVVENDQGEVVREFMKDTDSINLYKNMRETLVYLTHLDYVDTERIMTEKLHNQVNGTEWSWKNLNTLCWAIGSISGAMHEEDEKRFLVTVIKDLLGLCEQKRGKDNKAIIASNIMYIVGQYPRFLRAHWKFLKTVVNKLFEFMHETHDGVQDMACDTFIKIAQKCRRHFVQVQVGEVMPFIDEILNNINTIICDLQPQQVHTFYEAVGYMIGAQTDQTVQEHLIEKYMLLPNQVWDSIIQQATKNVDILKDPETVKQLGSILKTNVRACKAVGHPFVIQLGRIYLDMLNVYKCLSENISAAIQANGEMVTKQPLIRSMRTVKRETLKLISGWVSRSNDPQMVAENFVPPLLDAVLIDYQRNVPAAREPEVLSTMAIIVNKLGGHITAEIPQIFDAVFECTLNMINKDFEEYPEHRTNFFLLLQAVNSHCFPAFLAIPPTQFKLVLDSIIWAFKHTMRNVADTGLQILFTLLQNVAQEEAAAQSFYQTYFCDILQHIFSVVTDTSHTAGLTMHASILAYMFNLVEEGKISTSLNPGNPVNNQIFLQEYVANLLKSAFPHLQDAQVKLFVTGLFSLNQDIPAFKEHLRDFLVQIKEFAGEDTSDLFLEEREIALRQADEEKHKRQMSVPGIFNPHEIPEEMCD

Substance: GST-hRio2NES-R F13A
- percent of parent [1]: 17%

Substance: GST-hRio2NES-R F13M
- percent of parent [1]: 110%

Substance: GST-hRio2NES-R F13P
- percent of parent [1]: 33%

Substance: GST-hRio2NES-R F13W
- percent of parent [1]: 31%

Substance: GST-hRio2NES-R F13Y
- percent of parent [1]: 17%

Substance: GST-hRio2NES-R M11A
- percent of parent [1]: 17%

Substance: GST-hRio2NES-R M11F
- percent of parent [1]: 53%

Substance: GST-hRio2NES-R M11I
- percent of parent [1]: 57%

Substance: GST-hRio2NES-R M11P
- percent of parent [1]: 15%

Substance: GST-hRio2NES-R M11V
- percent of parent [1]: 17%

Substance: GST-hRio2NES-R M11W
- percent of parent [1]: 80%

Substance: GST-hRio2NES-R M11Y
- percent of parent [1]: 10%

Substance: MBP-CPEB4^NES (peptide)
- Kd [2]: 0.59 µM

Substance: MBP-CPEB4^NES-R (peptide)
- Kd [2]: 0.78 µM

Substance: MBP-hRio2^NES (peptide)
- Kd [2]: 2.2 µM

Substance: MBP-hRio2^NES-R (peptide)
- Kd [2]: 2.4 µM
